Laboratory results published in US20220088145A1.

Key:
[1] = molecular target: HLA-DR15 dimer (DR1501) (human); assay: peptide binding to HLA-DR dimer; EC50 ratio (<20 = high affinity, 20-100 = moderate affinity); method not described
[2] = molecular target: HLA-DR7 dimer (DR0701) (human); assay: as above

Row | Substance | EC50 Ratio [1] | EC50 Ratio [2]
1 | E. rectale Fla1 p445-464 (peptide) | 4.5 | 
2 | R. Intest. Fla1 p408-427 (peptide) | 4.1 | 5
